Laboratory results as given in the nanobody polyreactivity screen of Harvey et al. (2022).

experiment: yeast display, Sf9 membrane polyspecificity reagent, FACS + sequencing; frameworks hold sequencing errors
Summary of the method: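 Synthetic nanobody libraries on Saccharomyces cerevisiae BJ5465 were galactose-induced for 36–48 hours, stained 1 hour at 4 °C with 10% biotinylated, detergent-solubilized Sf9 membrane reagent and enriched on streptavidin microbeads. FACS then separated cells into low and high (top ~1%) gates by anti-HA (expression) and streptavidin (reagent binding) fluorescence. Genes were colony-PCR amplified, MiSeq 2 × 250 sequenced and CDR-length filtered. A clone's polyreactivity label is that of its gate of origin.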

| Sequence | polyreactivity (PSR sort gate) |
| --- | --- |
| QVQLVESGGGLVQAGGSLRLSCAASGRTFKYYAMGWYRQAPGKERELVAAISYNGGSTFYADSVKGRFTFSRDNAKNTVYLQMNSLKPEDTAVYYCAAGPRGTGKYYWGQGTQVTVSS | high polyreactivity |
| QVQLVESGGGLVQAGGSLRLSCAASGGTFQRYVMGWYRQAPGKERELVAAISRSGSTYADSVKGRFTISRDNAKNTVYLQMKSLKPEDTAVYYCNVVSYYRYYLHGYDYWGQGTQVTVSS | high polyreactivity |
| QVQLVESGGGLVQAGGSLRLICAASGRIFTSNAMGWYRQAPGKERELVAAISKSGGSTYYADSVKGRFTISRDNAKNTVYLQMNSLKPEDTAVYYCAAVPWRGFDYWGQGTQVTVSS | high polyreactivity |
| QVQLEESGGGLVQAGGSLRLSCAASGSTFVYYARGWYRQAPGKERELVAAITTRGGSTYYADSVKGRFTISRDNAKNTVYLQMNSLKPEDTAVYYCATKWPVYPTGYDYWGQVTQVTVSS | low polyreactivity |
| QVQHVESVGGLVQAGGSLRLSCAASGSIFGRYAMGWYRHAPGKERELVAAISWSGGSTYYADSVKGRFTISRDNAKNTVYLQMNSLKPEDTAVYYCAATTYSGFDYWGQGTQVTVSS | high polyreactivity |
| QVQLVESGGGLVQAGGRLRLSCAASGFTFYYYTMGWYRQAPGKEREVVAAITWRGGSTNYADSVKGRFTISRDNAKNTVYLQMNSLKPEDTAVYYCAAVTYWFWPGMDYWGQGTQVTVSS | low polyreactivity |
| QVQLEESGAGLVQAGGSLRLSCAASGSIFNLYAMGWYRQAPGKEMELVAAINWSGGSTYYADSVKGRFTISRDNAKNTVYLQMNSLKPEDTAVYYCAADAYSTYYGYEGDYWGQGTQVTVSS | low polyreactivity |
| QVQLVESGGGLVQAGGSLRLSCAASGRTFARYAMGWYRQAPGKERELVAAITRGGSTKYADSVKGRFTISRDNAKNTVYLQMNSLKPEDTAVYYCNKVIVQYTLDRGYWGQGTQVTVSS | high polyreactivity |
| QVQLVESGGGLVQAGGSLRLSCAASGRIFTSNTMGWYRQAPGKERELVAAITWRVGSTYYADSVKGRFTISRDNAKNTVYLQMNSLKPEDTAVYYCNAVVLHVTTDNSTFTTDDYWGQGTQVTVSS | low polyreactivity |
| QVHLQESGGGLMQAGGSQRLSSAASGSISYYSDMGWYRQAPGKEREFVAGIGYGTTTNYADSVKGRFTTSRDNGKNTVYLQMSSMKPEDTAVYYCAAYQGNGYEFYYWGQGTQVTVRS | low polyreactivity |
| QVQLVESGGGLVQAGGSLRLSCAASGLIFSKNVMGRYRQAPGKERELVAAISQRGGSTYYADSVKGRFTISRDNAKNTVYLQMNSLKPEDTAVYYCAADNTVSHEDYWGQGTQVTVSS | high polyreactivity |
| QVQLVESGGGLVQAGGSLRLSCAASGSTFTHNGMGWYRQAPGKETELVASITWSGGSTYYAVSVKGRFTISRDNAKNTVYLQMNSLKPEDNAVYYCASDAKLYITGFDYWGQGTQVTVSS | low polyreactivity |
| QVQLQESGGGLVQAGGSLRLSCAASGYIYSWYPMGWYLQAPGKEREFVATIAPGATTYYADSVKGRFTISRDYAKNTVYLQMNSLKTEDTAVYYCAAGAENNDFYSYWGHGTQVTVSS | low polyreactivity |
| QVQLVESGGGLVQAGGSLRLSCAASGRTFPGNAMGWYRQAPGKEREFFAAITRSGGSTYADSVKGRFTISRDNAKNTVYLQMNSLKPEDTAVSYCAATFKWYSHTKPRFDYWGQGTKVTVSS | low polyreactivity |
| QVQHVESVGGLVQAGGSLRLSCASSASIFRPNAMGWYRQAPGKDRELVAAITWSGDSTYYADSVKGRFTISRDNAKNTVYLQMNSLKPEDTAVYYCAADFTYQGSSPNYYWGQGTQVTVSS | low polyreactivity |
| QVQLVESGGGLVQAGGSLRLSCAASGRIFYRYAMGWYRQAPGKERELVAAINKSGGSTYYADSVKGRFTISRDNGKNTVSLQMKSLKPEDTAVYYCTAVYYWYKGDYWGQGTQVTVSS | high polyreactivity |
| QVQLVESGGGLVQAGGSLRLSCAASGRTFRTYTMGWYRQAPGKERELVAAITSTGSTYYADSVKGRFTISRDNAKNTVYLQMNSLKPEDTAVYYCAAVYVAVGLVYEKYDYWGQGTQVTVSS | high polyreactivity |
| QVQLVESGGGLVQAGGSLRLSCAASGSTFSPNAMGWYRQAPGKERELVAAITYRGANTYYADSVKGRFTISRDNAKNTVYLQMNSLKPEDTAVYYCAAEYAYHHVGFGYWGQGTLVTVSS | low polyreactivity |
| QVQLVESGGGLDQAGGSLRLSCAASGITVTSYVMGWYRQAHWKERELVAAIRWSGGRTYYADSVKGRFTISRDNAKNTVYLQMNSLKPEDTAVYYCNRVTRSHVDYWGQGTQVTVSS | high polyreactivity |
| QVQLVESGGGLVQAGGSLRLSCAASGYTFAPNTMGWYRQAPGKERELVATITVSGGITYADSVKGRFTISRDNAKNTVYLQMNSLKPEDTAVYYCAARTPGWYLPRDYWGQGTQVTVSS | low polyreactivity |
| QVQLVESGGGLVQAGGSLRLSCAASGNILFYNSMGWYRQAPGKERELVAAISRSAGSTYYADSVKGRFTISRDNAKNTVYLQMNRLKAEDTAVYYCAAQYFRRSGYWGQGTQVTVSS | high polyreactivity |
| QVQLVESGGGLVQAGGSLRLSCDASGRTFAYYAMGWYRQAPGKERELVAAISNGGSTYYADSVKGRFTISRDNAKNTVYLQMNRLKPEDTSVYYCNAYYSDLYDYWGQGTQVTVSS | low polyreactivity |

| Sequence | polyreactivity (PSR sort gate) |
| --- | --- |
| QVQLLESGGGLVQAGGSLRLSCAASGFTFTYYAMGWYRQAPGKERELVAAISRRGGSTYYADSVKGRFTISRDNAKNTVYLQMNSLKPEDTAVYYCARDYNSAVGMVYWGQGTQVTVSS | high polyreactivity |
| QVQLVESGGGLVQAGGSLRLSCAASGSIFTYNGMGWYRQAPGKEREFVAAITWTGGSTYADSVKGRFTISRDNAKNTVYLQMNSLKPEDTAVYYCAAVRRISWYTPVNTRRYYYWGQGTQVTVSS | high polyreactivity |
| QVQLVESGGGLVQAGGSLRLSCAASGSTFGYYAMGWYRQAPGKERELVAAISYRSGSTYYADSVNGRFTISRDNAKNTVYLQMNSLKPEDTAVYYCAPVIQRQQRYEYWGQGTQVTVSS | high polyreactivity |
| QVQLVESGGGLVQAGGSLRLSCAASGSILFGYGMGWYRQAPGKERELVATITTSGGTYYADSVKGRFTISRDNAKNTVYLQMNSLKPEDTAVYYCAATAAALDGNTIMYYWGQGTQVTVSS | low polyreactivity |
| QVQLVESGGGLVQAGGSLRLSCAASGRILWTYAMGWYRQAPGKERELVADISRTGSTNYADSVKGRFTISRDNAKNTVYLQMNSLKPEDTAVYYCNADYDRSRVYYSVELYDYWGQGTQVTVSS | low polyreactivity |
| QVQLVESGGGLVQAGGSLRLSCAASGSIFGYNVMGWYRQAPGKERELVATISSSGGTNYADSVKGRFTISRDNAKNTVYLQMNSLKPEDTAVYYCNADVLDGGYDYWGQGTQVTVSS | low polyreactivity |
| QVQLVESGGGLVQAGGSLRLSCAASGRIFGQNVMGWYRQAPGKERELVAAITSAGRTYYADSVKGRFTISRDNAKNTVYLQMNSLKPEDTAVYYCAKVVSRKGYGYWGQGTQVTVSS | high polyreactivity |
| QVQLVESGGGLVQAGGSLRLSCAASGLTFGYYVMGWYRQAPGKERELVADINFSGGSTYYADSVKGRFTISRDNAKNTVYLQMNSLKPEDTAVYYCNGVVYRFTVSTGYESWGQGTQVTVSS | low polyreactivity |
| QVQLVESGGGLVQAGGSLSLSCAASGSTFFSYAMGWYRQAPGKEREFVAAITYSSGRTYYADSVKGRFTISRDNAKNTVYLQMNSLKPEDTAVYYCATTGFVWGRGYDYWGQGTQVTVSS | high polyreactivity |
| QVQLVESGGGLVQAGGSLRLICAASGRIIYCNGMGWYRQAPGKERELVAAISSGGSTYYADSVKGRFTISRDNAKNTVYLQMNCLKPEDTAVYYCAADIDYESDRYDYWGQGTQVTVSS | low polyreactivity |
| QVQLVESGAGLVQAGGSLRLSCAASGRTFRPNPMGWYRPAPWKDRELVASITSGGRTNYADSVKGRFTISRDNAKNTVYLQMNSLKPEDTAVYYCAADHYHGYWKYDYWGQGTQVTVSS | low polyreactivity |
| QVQLVESGGGLVQAGGTLRLSCAATGSIFPGNAMGWYRPAPGKERELVAAISGRGGSTYYADSVKGRFTISRDNAKNTVYVQMNSLKPEDTAVYYCAAAPVYRPRDSYDKHRHYYWGQCTQVTVSS | high polyreactivity |
| QVQLVESGGGLVQAGGSLRLSCAASGRIFQTYAMGWYRQAPGKERELVASISWSGGSTYYADSVKGRFTILRDNAKNTVYLQMNSLKPEDTAVYYCAAVYYSTDYYFWYDYWGQGTQVTVSS | low polyreactivity |
| QVQLVESGGGLVQAGGSLRLSCAASGRTFYWNTMGWYRQAPGKERELVAAINYSGGSTYYADSVKGRFTISRDNAKNTVYLQMNSLKPEDTAVYYCAAYFHGYKSQHRARSEYNYWGQGTQVTVSS | high polyreactivity |
| QVQLVESGGGLVQAGGSLRLSCAASGSIRGYAMGWYRQAPGKERELVAAISWRGGSTYYADSVKGRFTISRDNAKNTVYLQMNSLKPEDTAVYYCAAADGIIESDYWGQGTQVTVSS | low polyreactivity |
| QVQLVESGGGLVQAVGSLRLSCAASGSIFGAYAMGWYRQAPGKERELVAAITSGGSTNYADSVKGRFTISRDNAKNTVYLQMNSLKPEDTAVYYCAARRRYAKFRYDYWGQGTQVTVSS | high polyreactivity |
| QVQLVESGGGLVQAGGSLRLSCAASGSTFCRNTMGWYRQAPGKERELVAAINRSASNTYYADSVKGRFTISRDNAKNTVYLQMNSLKQEDPAVYYCSTYSRIFKWEYYYWGQGTQGTVSS | high polyreactivity |
| QVQLVESGGGLVQAGGSLRLSCAASGRIIRAYDMGWYRQAPGKERELVAVIRYRGGTTYYADSVKGRFTISRDNAMNTVYLQMYSLKPEDTAVYYCATEDNYHWWYTGVSYGEHDYLGQGTQVTVSS | low polyreactivity |
| QVQLVESGGGLVQAGGSLRLSCAASGSTFKYYAMGWSRQAPGKERELVAAISYRGGRTYYADSVKGRFTISRDNAKNTVYLQMNSLKPEDTAVYYCPAVKPYYIQYQGSAGYDYWGQGTQVTVSS | high polyreactivity |
| QVQLVESGGGLVQAGGSLRLSCAASGRILRTYAMGWYRQPPGKETELVAAITWSGASTYYADSVKGRFTISRDNAMNTVYLQMNSLKPEDTAVYYCNALSPGYRIYDYWGQGTQETVSS | high polyreactivity |
| QVQLVESGGGLVQAGGSLSLSCAASGSTFDRYAMGWYRQAPGKERELVAAISHSGGRTYYADSVKGRFTISRDNAKNTVYLQMNSLKPEDTAVFYCAAKSRSGTEAAYGYWGQGTQVTVSS | low polyreactivity |
